Data from patent US20230265151A1, “GIP/GLP1 CO-AGONIST COMPOUNDS” (priority 2020, published 2023).
Positions count from the first letter of the chain named.

T1: human GIP receptor (human, UniProt P48546 22-466)
T1 sequence (looked up): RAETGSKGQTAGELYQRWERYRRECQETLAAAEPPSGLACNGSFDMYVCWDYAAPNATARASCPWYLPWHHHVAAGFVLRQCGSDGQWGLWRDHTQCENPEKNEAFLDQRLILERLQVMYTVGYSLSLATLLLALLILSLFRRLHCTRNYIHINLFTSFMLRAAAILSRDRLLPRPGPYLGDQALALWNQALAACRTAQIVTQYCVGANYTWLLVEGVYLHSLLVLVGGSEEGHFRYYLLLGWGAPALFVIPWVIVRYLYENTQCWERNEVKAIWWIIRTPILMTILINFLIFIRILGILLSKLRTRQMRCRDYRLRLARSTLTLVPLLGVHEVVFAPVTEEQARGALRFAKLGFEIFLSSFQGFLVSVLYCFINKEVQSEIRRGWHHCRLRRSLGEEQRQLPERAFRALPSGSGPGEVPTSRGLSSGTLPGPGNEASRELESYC

B1: Example 225 (peptide)
peptide: YXEGTXTSDXSIXLDXKAQXEFIXXLIEGGPSSGAPPPSK
modifications: Y-Aib-EGT-αMeF(2F)-TSD-4Pal-SI-αMeL-LD-Orn-K((2-[2-(2-Amino-ethoxy)-ethoxy]-acetyl)3-(γ-Glu)-CO-(CH2)12-CO2H)AQ-Aib-EFI-(D-Glu)-αMeY-LIEGGPSSGAPPPSK((2-[2-(2-Amino-ethoxy)-ethoxy]-acetyl)3-(γ-Glu)-CO-(CH2)12-CO2H)-NH2
B2: Example 261 (peptide)
peptide: B1 peptide
modifications: Y-Aib-EGT-αMeF(2F)-TSD-OMeY-SI-αMeL-LD-Orn-K((2-[2-(2-Amino-ethoxy)-ethoxy]-acetyl)2-(γ-Glu)-CO-(CH2)12-CO2H)AQ-Aib-EFI-(D-Glu)-αMeY-LIEGGPSSGAPPPSK((2-[2-(2-Amino-ethoxy)-ethoxy]-acetyl)2-(γ-Glu)-CO-(CH2)12-CO2H)-NH2
B3: Example 267 (peptide)
peptide: B1 peptide
modifications: Y-Aib-EGT-αMeF(2F)-TSD-OMeY-SI-αMeL-LD-Orn-K((2-[2-(2-Amino-ethoxy)-ethoxy]-acetyl)2-CO-(CH2)12-CO2H)AQ-Aib-EFI-(D-Glu)-αMeY-LIEGGPSSGAPPPSK((2-[2-(2-Amino-ethoxy)-ethoxy]-acetyl)2-CO-(CH2)12-CO2H)-NH2
B4: Example 257 (peptide)
peptide: B1 peptide
modifications: Y-Aib-EGT-αMeF(2F)-TSD-2Nal-SI-αMeL-LD-Orn-K((2-[2-(2-Amino-ethoxy)-ethoxy]-acetyl)2-CO-(CH2)12-CO2H)AQ-Aib-EFI-(D-Glu)-αMeY-LIEGGPSSGAPPPSK((2-[2-(2-Amino-ethoxy)-ethoxy]-acetyl)2-CO-(CH2)12-CO2H)-NH2
B5: Example 258 (peptide)
peptide: B1 peptide with K17I, E21K
modifications: Y-Aib-EGT-αMeF(2F)-TSD-2Nal-SI-αMeL-LD-Orn-IAQ-Aib-K((2-[2-(2-Amino-ethoxy)-ethoxy]-acetyl)2-CO-(CH2)12-CO2H)Fl-(D-Glu)-αMeY-LIEGGPSSGAPPPSK((2-[2-(2-Amino-ethoxy)-ethoxy]-acetyl)2-CO-(CH2)12-CO2H)-NH2
B6: Example 254 (peptide)
peptide: B1 peptide with K17I, E21K
modifications: Y-Aib-EGT-αMeF(2F)-TSD-2Nal-SI-αMeL-LD-Orn-IAQ-Aib-K((2-[2-(2-Amino-ethoxy)-ethoxy]-acetyl)2-(γ-Glu)-CO-(CH2)12-CO2H)FI-(D-Glu)-αMeY-LIEGGPSSGAPPPSK((2-[2-(2-Amino-ethoxy)-ethoxyl-acetyl)2-(γ-Glu)-CO-(CH2)12-CO2H)-NH2
B7: Example 228 (peptide)
peptide: B1 peptide with K17I, E21K
modifications: Y-Aib-EGT-αMeF(2F)-TSD-4Pal-SI-αMeL-LD-Orn-IAQ-Aib-K((2-[2-(2-Amino-ethoxy)-ethoxy]-acetyl)3-(γ-Glu)-CO-(CH2)12-CO2H)FI-(D-Glu)-αMeY-LIEGGPSSGAPPPSK((2-[2-(2-Amino-ethoxy)-ethoxy]-acetyl)3-(γ-Glu)-CO-(CH2)12-CO2H)-NH2
B8: Example 268 (peptide)
peptide: B1 peptide with K17I, E21K
modifications: Y-Aib-EGT-αMeF(2F)-TSD-OMeY-SI-αMeL-LD-Orn-IAQ-Aib-K((2-[2-(2-Amino-ethoxy)-ethoxy]-acetyl)2-CO-(CH2)12-CO2H)FI-(D-Glu)-αMeY-LIEGGPSSGAPPPSK((2-[2-(2-Amino-ethoxy)-ethoxy]-acetyl)2-CO-(CH2)12-CO2H)-NH2
B9: Example 251 (peptide)
peptide: B1 peptide
modifications: Y-Aib-EGT-αMeF(2F)-TSD-2Nal-SI-αMeL-LD-Orn-K((2-[2-(2-Amino-ethoxy)-ethoxy]-acetyl)2-(γ-Glu)-CO-(CH2)12-CO2H)AQ-Aib-EFI-(D-Glu)-αMeY-LIEGGPSSGAPPPSK((2-[2-(2-Amino-ethoxy)-ethoxyl-acetyl)2-(γ-Glu)-CO-(CH2)12-CO2H)-NH2
B10: Example 264 (peptide)
peptide: B1 peptide with K17I, E21K
modifications: Y-Aib-EGT-αMeF(2F)-TSD-OMeY-SI-αMeL-LD-Orn-IAQ-Aib-K((2-[2-(2-Amino-ethoxy)-ethoxy]-acetyl)2-(γ-Glu)-CO-(CH2)12-CO2H)FI-(D-Glu)-αMeY-LIEGGPSSGAPPPSK((2-[2-(2-Amino-ethoxy)-ethoxyl-acetyl)2-(γ-Glu)-CO-(CH2)12-CO2H)-NH2
B11: Example 222 (peptide)
peptide: YXEGTXTSDXSIXLDXIAQXKFIXXLIKGGPSSGAPPPS
modifications: Y-Aib-EGT-αMeF(2F)-TSD-4Pal-SI-αMeL-LD-Orn-IAQ-Aib-K((2-[2-(2-Amino-ethoxy)-ethoxy]-acetyl)2-CO-(CH2)12-CO2H)Fl-(D-Glu)-αMeY-LIK((2-[2-(2-Amino-ethoxy)-ethoxy]-acetyl)2-CO-(CH2)12-CO2H)GGPSSGAPPPS-NH2 …
B12: Example 249 (peptide)
peptide: B11 peptide with I17K, K28E
modifications: Y-Aib-EGT-αMeF(2F)-TSD-2Nal-SI-αMeL-LD-Orn-K((2-[2-(2-Amino-ethoxy)-ethoxy]-acetyl)2-(γ-Glu)-CO-(CH2)12-CO2H)AQ-Aib-K((2-[2-(2-Amino-ethoxy)-ethoxy]-acetyl)2-(γ-Glu)-CO-(CH2)12-CO2H)FI-(D-Glu)-αMeY-LIEGGPSSGAPPPS-NH2
B13: Example 266 (peptide)
peptide: B11 peptide with I17K, K21E
modifications: Y-Aib-EGT-αMeF(2F)-TSD-OMeY-SI-αMeL-LD-Orn-K((2-[2-(2-Amino-ethoxy)-ethoxy]-acetyl)2-CO-(CH2)12-CO2H)AQ-Aib-EFI-(D-Glu)-αMeY-LIK((2-[2-(2-Amino-ethoxy)-ethoxy]-acetyl)2-CO-(CH2)12-CO2H)GGPSSGAPPPS-NH2 …
B14: Example 265 (peptide)
peptide: B11 peptide with I17K, K28E
modifications: Y-Aib-EGT-αMeF(2F)-TSD-OMeY-SI-αMeL-LD-Orn-K((2-[2-(2-Amino-ethoxy)-ethoxy]-acetyl)2-CO-(CH2)12-CO2H)AQ-Aib-K((2-[2-(2-Amino-ethoxy)-ethoxy]-acetyl)2-CO-(CH2)12-CO2H)FI-(D-Glu)-αMeY-LIEGGPSSGAPPPS-NH2 …

target: T1, human GIP receptor; assay: cell-based or functional assay

Binder | cAMP EC50 (1.0% HSA) [nM] | cAMP Emax (1.0% HSA) [%]
B1 | 1.81 | 67.5
B2 | 2.28 | 75.7
B3 | 0.808 | 
B4 | 5.61 | 72.2
B5 | 5.28 | 84.3
B6 | 16.8 | 68.5
B7 | 3.37 | 83.3
B8 | 5.06 | 92.3
B9 | 14.3 | 71.2
B10 | 7.12 | 84.4
B11 | 2.1 | 
B12 | 5.88 | 
B13 | 0.575 | 
B14 | 0.775 | 

target: human GLP-1 receptor (human, UniProt P43220 24-463); assay: cell-based or functional assay

Binder | cAMP EC50 (1.0% HSA) [nM] | cAMP Emax (1.0% HSA) [%]
B1 | 51.6 | 
B2 | 15.6 | 
B3 | 8.46 | 
B4 | 46.3 | 
B5 | 41.5 | 
B6 | 211 | 122
B7 | 42 | 119
B8 | 26.5 | 
B9 | 51 | 
B10 | 75.2 | 
B11 | 13.8 | 117
B12 | 51.6 | 
B13 | 5.83 | 
B14 | 5.14 | 

target: human glucagon receptor (human, UniProt P47871 26-477); assay: cell-based or functional assay

Binder | cAMP EC50 (1.0% HSA) [µM]
B1 | > 9.95
B2 | > 9.95
B3 | > 9.95
B4 | > 9.95
B5 | > 9.95
B6 | > 9.95
B7 | > 9.95
B8 | > 9.95
B9 | > 9.95
B10 | > 9.95
B11 | > 9.95
B12 | > 9.95
B13 | > 9.95
B14 | > 9.95
